From paper doi:10.1101/2022.08.12.503727 come the findings set out here.

In the series the target is T1, RBP45d (Arabidopsis thaliana, UniProt Q8VXZ9 1-425).
T1 sequence: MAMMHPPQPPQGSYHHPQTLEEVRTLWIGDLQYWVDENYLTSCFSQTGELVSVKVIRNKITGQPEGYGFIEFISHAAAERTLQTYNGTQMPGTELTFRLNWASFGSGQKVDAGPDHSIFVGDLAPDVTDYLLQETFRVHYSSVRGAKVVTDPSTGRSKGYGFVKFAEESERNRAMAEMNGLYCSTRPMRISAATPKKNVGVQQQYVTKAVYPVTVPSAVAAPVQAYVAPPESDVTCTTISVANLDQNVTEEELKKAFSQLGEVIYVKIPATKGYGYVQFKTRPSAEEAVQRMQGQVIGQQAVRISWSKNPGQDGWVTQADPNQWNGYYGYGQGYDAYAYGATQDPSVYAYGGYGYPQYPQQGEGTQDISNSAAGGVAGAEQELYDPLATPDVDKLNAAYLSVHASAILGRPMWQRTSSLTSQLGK
Put plainly: EMSA. (In general: In EMSA bound probe runs differently from free probe, usually more slowly.)

Turning to GUUUUGUUCGGUUUUGGUUUAGAUUUUUG (ssRNA) [Cy5-LPD1-IN2], the binding result is on record as “binds”.
